# Source: patent KR20220147769A (dated 2022)
# Positions count from the first letter of the chain named.
# B1: RB6 (antibody, V domains shown)
# VH: EVQLLESGGGLVQPGGSLRLSCAASGFTFSSYDMSWVRQAPGKGLEWVSGISYSGGSTYYADSVKGRFTISRDNSKNTLYLQMNSLRAEDTAVYYCARDVNFVPLVTFDYWGQGTLVTVSS
# VL: QSVLTQPPSASGTPGQRVTLSCTGSSSNIGSNSVTWYQQLPGTAPKLLIYDDNQRPSGVPDRFSGSKSGTSASLAISGLRSEDEADYYCGTWDYSLSAYVFGGGTKLTVL
# notes: also called clone RB6; antibody (iii)
# B2: RD3 (antibody, V domains shown)
# VH: EVQLLESGGGLVQPGGSLRLSCAASGFTFSDYAMSWVRQAPGKGLEWVSWIYSGSGNKYYADSVKGRFTISRDNSKNTLYLQMNSLRAEDTAVYYCARFPIARTSNSQSSYDGMDVWGQGTLVTVSS
# VL: B1 VL with L20I, T23S, S33A, T35S, D51A, Q54K, T91A, Y94S, S97N
# notes: also called clone RD3; antibody (iv)
# B3: RD10 (antibody, V domains shown)
# VH: EVQLLESGGGLVQPGGSLRLSCAASGFTFSDYAMSWVRQAPGKGLEWVSAIYPGGGSTYYADSVKGRFTISRDNSKNTLYLQMNSLRAEDTAVYYCARNLFGFDYWGQGTLVTVSS
# VL: B1 VL with L20I, S33A, T35Y, N53S, Q54N, T91S, Y94D
# notes: also called clone RD10; antibody (v)
# Target: T1, SARS-CoV S protein RBD antigen (SARS-CoV, UniProt P59594 306-527)
# T1 construct: also called SARS-CoV RBD
# Assay: ELISA, 0.1 μg antigen coated, IgG4
row,Binder,binding result
1,B1,binds
2,B2,binds
3,B3,binds
